The supplement of paper PMC10126150
± gives the standard deviation of the averaged measurements.
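Also: ATP exposure 15 min at 22 °C before imaging.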

Each sequence was assayed on ATP (assay: switch fluorescence ratio, 500 uM ATP over buffer (Cy3 cluster intensity, sum of 5 cycles each) (fold (ratio)); higher = stronger signal-on switching upon ATP binding; sequences stand for … in TCGTCGGCAGCGTCAGATGTGTATAAGAGACAGTTTTTTTTTTTTTTTTTTTTTTTTT…TC). Details: aptamer strand: ATP DNA aptamer (quencher-CACCTGGGGGAGTATTGCGGAGGAAGG + anchor), 100 nM annealed; ATP concentration: 500 uM.
Method in brief: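 For every switch-domain sequence, the fluorescence ratio is the mean of per-cluster values, each being summed target-cycle Cy3 intensity over summed buffer-cycle Cy3 intensity. Clusters outside 100-1000 RFU were excluded. On a modified Illumina MiSeq flow-cell, the Cy3-labelled switching-strand clusters were annealed to 100 nM quencher-labelled ATP aptamer, imaged in selection buffer and then after 15 min with 500 uM ATP at 22 °C. Five such cycles were run, with NaOH stripping and re-annealing between them.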
TTAATTTTCT gave a switch fluorescence ratio of 1.04 ± 0.033. With TTACAAAGGA the switch fluorescence ratio was 0.999 ± 0.017. With TTACACACAC the switch fluorescence ratio was 1.53 ± 0.073. With TTACAGTGGA the switch fluorescence ratio was 1.01 ± 0.0018. For TTACAGTTGT, the switch fluorescence ratio was 1.01 ± 0.038. TTACATATAG gave a switch fluorescence ratio of 1.04 ± 0.015. Sequence TTACATATCT has a switch fluorescence ratio of 1.03 ± 0.0043. TTACATGTTC gave a switch fluorescence ratio of 0.996 ± 0.025. TTACATTGAG gave a switch fluorescence ratio of 0.976 ± 0.015. TTACCCATTT showed a switch fluorescence ratio of 1.1 ± 0.085. TTACCCTTAG was tested, and the switch fluorescence ratio was 1.06 ± 0.028. TTACCTAGAG showed a switch fluorescence ratio of 1.04 ± 0.038. TTACCTCTGC showed a switch fluorescence ratio of 1.39 ± 0.067. TTACGAGGGG gave a switch fluorescence ratio of 0.994 ± 0.024. With TTACGCAAGT the switch fluorescence ratio was 1.27 ± 0.17. TTACGCAATT was tested, and the switch fluorescence ratio was 4.42 ± 0.59. In the case of TTACGCTACT, the switch fluorescence ratio is reported as 1.802 ± 0.0047. TTACGGCATG was tested, and the switch fluorescence ratio was 1.03 ± 0.014. TTACGGCCTT gave a switch fluorescence ratio of 1.06 ± 0.012. With TTACGGGCGA the switch fluorescence ratio was 0.998 ± 0.029. TTACGGGCGT gave a switch fluorescence ratio of 0.99 ± 0.013. TTACGGGCTA gave a switch fluorescence ratio of 0.9975 ± 0.0081. Work on TTACGGGGTA yielded a switch fluorescence ratio of 1 ± 0.011. Sequence TTACGGGGTC has a switch fluorescence ratio of 1.07 ± 0.12. TTACGGTAAT was tested, and the switch fluorescence ratio was 1.143 ± 0.0043. In the case of TTACGTAGGC, the switch fluorescence ratio is reported as 1.09 ± 0.012. TTACGTTTGG was tested, and the switch fluorescence ratio was 1.02 ± 0.025. For TTACTAATTT, the switch fluorescence ratio was 1.05 ± 0.036. For TTACTACTTT, the switch fluorescence ratio was 1.04 ± 0.0099. In the case of TTACTAGGCA, the switch fluorescence ratio is reported as 1.01 ± 0.012. TTACTCCGGG gave a switch fluorescence ratio of 1.3 ± 0.23. Sequence TTACTCTCTG has a switch fluorescence ratio of 1.03 ± 0.025. For TTACTGGGGG, the switch fluorescence ratio was 0.999 ± 0.027. In the case of TTACTGTTG, the switch fluorescence ratio is reported as 1.05 ± 0.1. TTACTTCTCA gave a switch fluorescence ratio of 1 ± 0.011. In the case of TTACTTGGCT, the switch fluorescence ratio is reported as 1.01 ± 0.032. For TTACTTTTTC, the switch fluorescence ratio was 1.01 ± 0.011. Work on TTAGAAAGAA yielded a switch fluorescence ratio of 0.976 ± 0.013. For TTAGAAGTTT, the switch fluorescence ratio was 1.01 ± 0.015. TTAGAATTCC gave a switch fluorescence ratio of 1.1 ± 0.091. TTAGACCGGA gave a switch fluorescence ratio of 1.02 ± 0.056. For TTAGACCGTG, the switch fluorescence ratio was 0.956 ± 0.079. In the case of TTAGACGGGT, the switch fluorescence ratio is reported as 0.982 ± 0.0043. Work on TTAGACGGTT yielded a switch fluorescence ratio of 1 ± 0.017. In the case of TTAGAGAAGT, the switch fluorescence ratio is reported as 0.987 ± 0.019. TTAGAGACGC showed a switch fluorescence ratio of 1.06 ± 0.021. With TTAGAGCTAG the switch fluorescence ratio was 1.07 ± 0.09. In the case of TTAGAGGACT, the switch fluorescence ratio is reported as 1.01 ± 0.025. With TTAGAGGGGG the switch fluorescence ratio was 1.01 ± 0.032. TTAGAGGTTG showed a switch fluorescence ratio of 1.13 ± 0.21. Sequence TTAGATGGAG has a switch fluorescence ratio of 0.984 ± 0.024. TTAGATGGTT showed a switch fluorescence ratio of 0.984 ± 0.021. In the case of TTAGATGTCC, the switch fluorescence ratio is reported as 0.9822 ± 0.0075. TTAGCAGCGT gave a switch fluorescence ratio of 1 ± 0.019. TTAGCAGCTG gave a switch fluorescence ratio of 1 ± 0.04. TTAGCAGGGA gave a switch fluorescence ratio of 1 ± 0.019. TTAGCATGGG gave a switch fluorescence ratio of 1.04 ± 0.037. TTAGCCTAGT gave a switch fluorescence ratio of 0.965 ± 0.037. TTAGCGAGGA was tested, and the switch fluorescence ratio was 1.03 ± 0.046. Sequence TTAGCGGTGG has a switch fluorescence ratio of 0.926 ± 0.057. In the case of TTAGCGTGCT, the switch fluorescence ratio is reported as 0.994 ± 0.0073. With TTAGCTAAAA the switch fluorescence ratio was 1.009 ± 0.01. Work on TTAGCTAGTT yielded a switch fluorescence ratio of 0.987 ± 0.042. In the case of TTAGCTGTAG, the switch fluorescence ratio is reported as 1.09 ± 0.11. Sequence TTAGGAACTC has a switch fluorescence ratio of 0.982 ± 0.014. Work on TTAGGAAGGG yielded a switch fluorescence ratio of 0.956 ± 0.035. With TTAGGACCCT the switch fluorescence ratio was 1.01 ± 0.041. TTAGGACTGG gave a switch fluorescence ratio of 0.992 ± 0.0054. Sequence TTAGGAGGTT has a switch fluorescence ratio of 0.965 ± 0.028. TTAGGATTAA showed a switch fluorescence ratio of 1.02 ± 0.063. TTAGGATTGG showed a switch fluorescence ratio of 0.986 ± 0.025. TTAGGCACAA was tested, and the switch fluorescence ratio was 1.03 ± 0.038. TTAGGCAGAT was tested, and the switch fluorescence ratio was 1.24 ± 0.36. TTAGGCCCCG gave a switch fluorescence ratio of 1.01 ± 0.04. TTAGGCCGGA gave a switch fluorescence ratio of 1.04 ± 0.075. In the case of TTAGGCTGAT, the switch fluorescence ratio is reported as 0.981 ± 0.02. Work on TTAGGGAGTG yielded a switch fluorescence ratio of 1 ± 0.027. With TTAGGGCTTT the switch fluorescence ratio was 1.01 ± 0.035. TTAGGGGATC showed a switch fluorescence ratio of 1 ± 0.025. With TTAGGGGCGT the switch fluorescence ratio was 0.989 ± 0.013. In the case of TTAGGGGGTG, the switch fluorescence ratio is reported as 1.01 ± 0.025. For TTAGGGGTCG, the switch fluorescence ratio was 1 ± 0.041. In the case of TTAGGGTCAT, the switch fluorescence ratio is reported as 0.979 ± 0.012. With TTAGGGTCGT the switch fluorescence ratio was 1.01 ± 0.018. TTAGGGTTTT gave a switch fluorescence ratio of 1.04 ± 0.067.
